Data taken from patent publication US11726091B2, “Compositions and methods of diagnosing pancreatic cancer” (THE REGENTS OF THE UNIVERSITY OF CALIFORNIA, priority 2017, dated 2023).
Where a SMILES comes first, the peptide text is derived from it. Where no end group is shown, it is not given here. [ ]: non-standard residue; d: D form. The star is where a group is joined. Sta = CC(C)C[C@H](N)[C@@H](O)CC(=O)O; Isovaleryl = CC(C)CC(=O)*

Key:
Gastricsin [1] = molecular target: T1, Gastricsin (Homo sapiens, UniProt P20142); test: Cleavage of peptide substrates by gastricsin (MSP-MS assay); format: biochemical; set-up: purchased R&D Systems 6186-AS; settings: Target Protease Gastricsin; for Relative Cleavage: relative to the most cleaved substrate (1.00)
T1 sequence (P20142 60-388): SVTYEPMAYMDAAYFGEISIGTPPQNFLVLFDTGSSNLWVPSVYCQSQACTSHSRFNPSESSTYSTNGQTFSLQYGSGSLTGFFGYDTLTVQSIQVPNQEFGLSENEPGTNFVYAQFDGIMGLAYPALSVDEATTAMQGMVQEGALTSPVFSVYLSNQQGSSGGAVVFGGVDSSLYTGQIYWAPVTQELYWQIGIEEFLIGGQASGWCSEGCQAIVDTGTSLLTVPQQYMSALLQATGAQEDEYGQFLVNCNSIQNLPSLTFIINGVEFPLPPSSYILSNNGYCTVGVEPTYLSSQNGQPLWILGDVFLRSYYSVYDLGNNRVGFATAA
Description: (§1) The MSP-MS assay was performed as previously described (34). Cyst fluid was diluted to 100 μg/mL in assay buffer (either pH 7.5 phosphate buffer or pH 3.5 acetate buffer) and pre-incubated for 10 minutes. For analysis of protease inhibitor sensitivity, 1 mM AEBSF (Sigma, A8456), 2 μM E-64 (Sigma, E3132), 2 μM pepstatin (Sigma, P5318), 2 mM 1,10-phenanthroline (Sigma, 131337), or DMSO were included in pre-incubation. The 228 tetradecapeptide library was split into two pools and diluted in assay buffer to a concentration of 1 μM of each peptide. 75 μL of diluted cyst fluid and peptide pools were then combined and incubated at room temperature. 30 μL aliquots were removed after 15 and 60 minutes, protease activity quenched with 8 M guanidinium hydrochloride, and flash-frozen in liquid N2. For recombinant gastricsin (R&D Systems, 6186-AS), cathepsin D (R&D Systems, 1014-AS), and cathepsin E (R&D Systems, 1294-AS), the MSP-MS assay was performed as described above with slight modifications: 10 nM of recombinant protease in pH 3.5 acetate buffer was used and aliquots were removed after 15, 60, and 240 minutes.
(§2) Prior to peptide cleavage site identification by mass spectrometry, samples were desalted using C18 tips (Rainin). Mass spectrometry analysis was carried out with an LTQ Orbitrap XL mass spectrometer coupled to a 10,000 psi nanoACQUITY Ultra Performance Liquid Chromatography (UPLC) System (Waters) for peptide separation by reverse phase liquid chromatography (RPLC). Peptides were separated over a C18 column (Thermo) and eluted by applying a flow rate of 300 nL/min with a 65-minute linear gradient from 2-30% acetonitrile. Survey scans were recorded over a 325-1500 m/z range and the six most intense precursor ions were fragmented by collision-induced dissociation (CID) for MS/MS.
(§3) Raw mass spectrometry data was processed to generate peak lists using MSConvert. Peak lists were then searched in Protein Prospector v. 5.10.0 (35) against a custom database containing the sequences from the 228 tetradecapeptide library. Searches used a mass accuracy tolerance of 20 ppm for precursor ions and 0.8 Da for fragment ions. Variable modifications included N-terminal pyroglutamate conversion from glutamine or glutamate and oxidation of tryptophan, proline, and tyrosine. Searches were subsequently processed using the MSP-xtractor software (http://www.craiklab.ucsf.edu/extractor.html), which extracts the peptide cleavage site and spectral counts of the corresponding cleavage products. Spectral counts were used for the relative quantification of peptide cleavage products.

Gastricsin [2] = molecular target: T1, Gastricsin; test: Fluorescent protease activity assay with recombinant gastricsin; format: biochemical; set-up: purchased R&D Systems 6186-AS
Description: (§4) Synthesis of internally quenched fluorescent peptides was conducted using Fmoc solid-phase peptide synthesis on a Syro II automated synthesizer (Biotage). Briefly, reactors were charged with Wang resin preloaded with Fmoc-Lys(dinitrophenol) (Anaspec, A23856). Coupling reactions were conducted on a 0.0125 mmol scale in 500 μL of DMF with 5 equivalents of Fmoc amino acid (Anaspec), 4.9 equivalents of HCTU (Anaspec), and 20 equivalents of N-methylmorpholine (NMM). Fmoc deprotection was conducted by incubation with 500 μL 40% 4-methlypiperidine in DMF, followed by 500 μL 20% 4-methlypiperidine in DMF. Substrates were capped with a […] Lys-(7-methoxycoumarin-4-acetic acid)-OH (EMD Millipore, 852095) followed by two D-Arg residues to enhance solubility. Peptides were removed from resin by incubating with 500 μL of cleavage solution (95% trifluoroacetic acid, 2.5% water, 2.5% Triisopropylsilane). […]
(§5) All fluorescent protease activity assays were performed in triplicate in black, round-bottom 384 well plates. […] Fluorescent substrate cleavage was monitored with a Biotek Synergy HT plate reader using excitation and emission wavelengths of 328 nm and 393 nm, respectively. Selectivity of the recombinant proteases was assessed by comparing the initial velocity of substrate hydrolysis in relative fluorescent units per second (RFU/sec). […]

Gastricsin [3] = molecular target: T1, Gastricsin; test: Gastricsin fluorescent substrate assay in patient cyst fluid, mucinous vs nonmucinous cysts; set-up: both proteases are released into cyst fluid in their proforms; from tissue; host or cells: human pancreatic cyst fluid; settings: differentiating mucinous from nonmucinous cysts; 110 cyst fluid samples; cutoff 1.23-fold change in fluorescence
Source text: (§6) Pancreatic cyst fluid samples were collected from preconsented patients under institutional review board oversight. All patients included in the study underwent surgical resection of their cystic lesion and have a pathologically confirmed diagnosis. The highest grade of dysplasia observed during pathological evaluation of each cystic lesion is reported. Samples were collected either at the time of surgical resection or during diagnostic endoscopic ultrasound prior to resection of the cystic lesion. Cyst fluid samples were split into 100 μL aliquots and frozen to −80° C. within 60 minutes of collection. Samples underwent at most two freeze-thaw cycles prior to experimental analysis. Total cyst fluid protein concentration was determined by the bicinchoninic acid assay. CEA levels were evaluated for the majority of samples, but were unavailable in 21 cases due to limited cyst fluid volume.
as §5, with “plates. Assays were run for 1 hour in 15 μL of acetate buffer with 0.01% Tween.” for “plates.”

[4] = tested on: protease activity of mucinous cyst fluid sample; test: MSP-MS analysis of protease inhibitor sensitivity in mucinous cyst fluid; format: biochemical, human; settings: for number of mucinous-specific substrates whose cleavage was inhibited: 1 mM AEBSF, 2 mM 1,10-phenanthroline
Description: as §1, §2, §3

[5] = tested on: cathepsin E and gastricsin protease activity in cyst fluid; test: Pepstatin inhibition of fluorescent substrate cleavage by mucinous cyst fluid; format: biochemical, human; settings: fluid from a mucinous cyst, pre-incubation with 2 μM pepstatin; FIG. 11
Description: All fluorescent protease activity assays were performed in triplicate in black, round-bottom 384 well plates. Assays were run for 1 hour in 15 μL of acetate buffer with 0.01% Tween. The pH of the acetate buffer was adjusted to promote activity of either aspartyl protease (pH 3.5 for the cathepsin E substrate and pH 2.0 for the gastricsin substrate). 10 μM of substrate was used for all assays (unless otherwise indicated) and was incubated with either 10 nM of recombinant protease or 50 μg/mL of cyst fluid protein. For kinetic analysis of gastricsin activity, the substrate concentration ranged from 0.1-25 μM. For analysis of inhibitor sensitivity, cyst fluid samples were pre-incubated with 2 μM of pepstatin. Fluorescent substrate cleavage was monitored with a Biotek Synergy HT plate reader using excitation and emission wavelengths of 328 nm and 393 nm, respectively. Selectivity of the recombinant proteases was assessed by comparing the initial velocity of substrate hydrolysis in relative fluorescent units per second (RFU/sec). For cyst fluid samples, the change in endpoint RFU was compared relative to wells that contained substrate, but no cyst fluid.

Cathepsin E [6] = molecular target: T2, Cathepsin E (Homo sapiens, UniProt P14091); test: Cleavage of peptide substrates by cathepsin E (MSP-MS assay); format: biochemical; set-up: purchased R&D Systems 1294-AS; settings: Target Protease Cathepsin E; for Relative Cleavage: relative to the most cleaved substrate (1.00)
T2 sequence (P14091 54-396): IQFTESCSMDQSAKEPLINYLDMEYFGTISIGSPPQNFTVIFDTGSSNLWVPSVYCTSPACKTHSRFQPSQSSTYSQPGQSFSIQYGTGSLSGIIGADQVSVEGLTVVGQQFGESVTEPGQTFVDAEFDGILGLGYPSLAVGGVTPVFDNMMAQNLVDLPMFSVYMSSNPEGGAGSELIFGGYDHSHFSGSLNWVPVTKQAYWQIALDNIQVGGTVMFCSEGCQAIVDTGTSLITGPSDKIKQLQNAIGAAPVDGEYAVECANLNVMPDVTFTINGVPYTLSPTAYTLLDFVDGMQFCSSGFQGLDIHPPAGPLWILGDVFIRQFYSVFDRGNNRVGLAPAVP
Description: as §1, §2, §3

Cathepsin E [7] = molecular target: T2, Cathepsin E; test: Fluorescent protease activity assay with recombinant cathepsin E; format: biochemical; set-up: purchased R&D Systems 1294-AS
Description: as §4, §5

Cathepsin E [8] = molecular target: T2, Cathepsin E; test: Cathepsin E fluorescent substrate assay in patient cyst fluid, mucinous vs nonmucinous cysts; set-up: both proteases are released into cyst fluid in their proforms; from tissue; host or cells: human pancreatic cyst fluid; settings: differentiating mucinous from nonmucinous cysts; 110 cyst fluid samples; cutoff 1.23-fold change in fluorescence
Source text: as §6
as §5, with “plates. Assays were run for 1 hour in 15 μL of acetate buffer with 0.01% Tween.” for “plates.”

[9] = single mucinous cyst fluid sample, FIG. 2A
[10] = single mucinous cyst fluid sample, 2 μM pepstatin, FIG. 2A

Compound	Total Cleavage (Gastricsin [1])	Relative Cleavage (Gastricsin [1])	Total Cleavage (Cathepsin E [6])	Relative Cleavage (Cathepsin E [6])	other results
DEGWALQH (also: fluorophore and quencher) [DEGW|ALQH]	30	0.47	–	–	limit-of-detection of gastricsin (Gastricsin [2]; fluorescence-based activity assay, FIG. 16): approximately 600 ng/mL; selectivity for gastricsin over both cathepsins D and E (Gastricsin [2]; initial velocity of substrate hydrolysis, 10 nM recombinant protease, 10 μM substrate (FIG. 4D)): greater than 120 fold; Sensitivity (Gastricsin [3]): 93%; Specificity (Gastricsin [3]): 100%
Cl.NCCc1ccc(S(=O)(=O)F)cc1 [AEBSF]	–	–	–	–	number of mucinous-specific substrates whose cleavage was inhibited [4, 9]: 3 substrates
c1cnc2c(c1)ccc1cccnc12 [1,10-phenanthroline]	–	–	–	–	number of mucinous-specific substrates whose cleavage was inhibited [4, 9]: 3 substrates
CC(C)CC(=O)N[C@H](C(=O)N[C@H](C(=O)N[C@@H](CC(C)C)[C@@H](O)CC(=O)N[C@@H](C)C(=O)N[C@@H](CC(C)C)[C@@H](O)CC(=O)O)C(C)C)C(C)C [pepstatin] (Isovaleryl-VV[Sta]A[Sta]-OH)	–	–	–	–	effect on cleavage of the mucinous-specific substrates ([4]; second mucinous cyst fluid sample, FIG. 8): block cleavage of the majority of the mucinous-specific substrates; number of additional mucinous-specific substrates whose cleavage was partially inhibited [4, 10]: 8 substrates; number of mucinous-specific substrates whose cleavage was fully inhibited [4, 10]: 20 substrates; inhibition of cleavage of gastricsin and cathepsin E fluorescent substrates [5]: fully inhibited
AGFSLPA (also: fluorophore/quencher) [AGFSL|PA]	–	–	–	–	limit-of-detection of cathepsin E (Cathepsin E [7]; fluorescence-based activity assay, FIG. 17): approximately 4 μg/mL; selectivity for cathepsin E over both cathepsin D and gastricsin (Cathepsin E [7]; initial velocity of substrate hydrolysis, 10 nM recombinant protease, 10 μM substrate): more than 100 fold; Sensitivity (Cathepsin E [8]): 70%; Specificity (Cathepsin E [8]): 92%

Further lines, with some results ahead:

Total Cleavage (Gastricsin [1])	Relative Cleavage (Gastricsin [1])	Total Cleavage (Cathepsin E [6])	Relative Cleavage (Cathepsin E [6])	Compound	other results
22	0.34	–	–	VGKWSYRM [VGKW|SYRM, gastricsin peptide substrate]	–
–	–	22	0.88	FGIFYLNG [FGIF|YLNG, cathepsin E peptide substrate]	–
–	–	10	0.40	HMIALYWG [HMIA|LYWG, cathepsin E peptide substrate]	–
–	–	25	1.00	GLYFRYE [GLY|FRYE, cathepsin E peptide substrate]	–
21	0.33	–	–	NMKWTRVL [NMKW|TRVL, gastricsin peptide substrate]	–
–	–	17	0.68	IKILMFYW [IKIL|MFYW, cathepsin E peptide substrate]	–
64	1.00	–	–	PWTWYGVK [PWTW|YGVK, gastricsin peptide substrate]	–
